Measured values reported in patent publication CN116425870A (UNIV SHAANXI NORMAL, dated 2023).

Molecular target: T1, SARS-COV-2病毒N蛋白 (SARS-COV-2, UniProt P0DTC9 1-419)
T1 construct: also called 新型冠状病毒N蛋白; SARS-COV-2N蛋白
Experiment: ELISA, N protein coated 100 ng/well, supernatant of transfected Expi293F cells

B1: 31A8抗体重链31A8mG1 (heavy chain transfected alone) (other)
VH: EVQLQQSGPELVKPGASVKISCKTSGYTFTKYTMHWVKQSHGKSLEWIGGINPNNGGNSYNQKFKGKATLTVDKSSSTAYMELRSLTSEDSAVYYCATPDYWGQGTTLTVSS
  binding result: no binding
